# Measured values: article PMC5648754, “CryoEM structure of Saccharomyces cerevisiae U1 snRNP offers insight into alternative splicing” (Nature Communications, 2017)
# T1: yeast U1C (S. cerevisiae, UniProt Q05900 1-231)
# T1 construct: U1C of S. cerevisiae U1 snRNP, 231 residues; NTD residues 1-48; residues 3-47 and 48-195 modelled; also called Yhc1; source: endogenous, S. cerevisiae; co-purified in U1 snRNP through the TAP tag on U1A
# T1 sequence (looked up): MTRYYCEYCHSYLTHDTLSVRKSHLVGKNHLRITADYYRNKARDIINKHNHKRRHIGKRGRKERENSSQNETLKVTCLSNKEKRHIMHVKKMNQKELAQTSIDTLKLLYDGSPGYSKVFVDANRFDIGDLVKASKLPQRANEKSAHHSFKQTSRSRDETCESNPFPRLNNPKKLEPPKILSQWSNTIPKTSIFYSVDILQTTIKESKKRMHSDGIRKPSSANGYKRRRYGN
# T2: yeast Prp42 (S. cerevisiae, UniProt Q03776 1-544)
# T2 construct: Prp42 of S. cerevisiae, 544 residues; residues 2-540 modelled; source: endogenous, S. cerevisiae; co-purified in U1 snRNP through the TAP tag on U1A
# T2 sequence (looked up): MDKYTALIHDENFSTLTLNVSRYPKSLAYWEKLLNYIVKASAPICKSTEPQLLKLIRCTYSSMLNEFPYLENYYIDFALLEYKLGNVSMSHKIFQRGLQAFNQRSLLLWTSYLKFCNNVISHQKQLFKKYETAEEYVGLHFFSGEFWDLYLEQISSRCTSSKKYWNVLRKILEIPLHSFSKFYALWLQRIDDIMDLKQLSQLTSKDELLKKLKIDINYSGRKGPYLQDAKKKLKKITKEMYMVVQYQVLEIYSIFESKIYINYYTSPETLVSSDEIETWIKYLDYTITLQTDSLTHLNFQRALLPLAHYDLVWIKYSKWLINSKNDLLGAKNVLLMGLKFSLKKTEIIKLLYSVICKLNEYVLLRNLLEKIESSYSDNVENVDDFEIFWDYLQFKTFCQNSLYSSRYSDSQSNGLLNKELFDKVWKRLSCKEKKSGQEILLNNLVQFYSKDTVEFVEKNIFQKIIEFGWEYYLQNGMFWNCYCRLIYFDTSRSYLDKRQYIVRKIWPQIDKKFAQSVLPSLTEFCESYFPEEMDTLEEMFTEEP
# T3: yeast Prp40 (S. cerevisiae, UniProt P33203 1-583)
# T3 construct: Prp40 of S. cerevisiae U1 snRNP; not modelled in the structure; source: endogenous, S. cerevisiae; co-purified in U1 snRNP through the TAP tag on U1A
# T3 sequence (looked up): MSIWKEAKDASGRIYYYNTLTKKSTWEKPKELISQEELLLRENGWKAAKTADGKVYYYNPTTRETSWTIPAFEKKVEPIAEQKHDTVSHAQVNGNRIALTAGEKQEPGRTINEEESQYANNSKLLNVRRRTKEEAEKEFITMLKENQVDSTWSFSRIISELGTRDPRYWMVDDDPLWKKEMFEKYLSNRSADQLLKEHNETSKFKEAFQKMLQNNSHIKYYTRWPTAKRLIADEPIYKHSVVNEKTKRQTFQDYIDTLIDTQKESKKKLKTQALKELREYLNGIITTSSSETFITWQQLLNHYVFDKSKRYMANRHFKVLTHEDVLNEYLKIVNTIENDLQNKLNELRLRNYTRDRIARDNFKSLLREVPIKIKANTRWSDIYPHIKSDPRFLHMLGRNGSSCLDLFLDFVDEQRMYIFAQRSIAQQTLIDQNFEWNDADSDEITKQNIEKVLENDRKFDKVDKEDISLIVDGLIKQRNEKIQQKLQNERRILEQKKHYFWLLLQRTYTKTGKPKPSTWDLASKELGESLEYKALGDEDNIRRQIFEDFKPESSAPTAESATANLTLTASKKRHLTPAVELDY
# T4: yeast Snu56 (S. cerevisiae, UniProt Q03782 1-492)
# T4 construct: Snu56 of S. cerevisiae, 492 residues; N-terminal domain 47-254 and long helix 255-303 modelled; source: endogenous, S. cerevisiae; co-purified in U1 snRNP through the TAP tag on U1A
# T4 sequence (looked up): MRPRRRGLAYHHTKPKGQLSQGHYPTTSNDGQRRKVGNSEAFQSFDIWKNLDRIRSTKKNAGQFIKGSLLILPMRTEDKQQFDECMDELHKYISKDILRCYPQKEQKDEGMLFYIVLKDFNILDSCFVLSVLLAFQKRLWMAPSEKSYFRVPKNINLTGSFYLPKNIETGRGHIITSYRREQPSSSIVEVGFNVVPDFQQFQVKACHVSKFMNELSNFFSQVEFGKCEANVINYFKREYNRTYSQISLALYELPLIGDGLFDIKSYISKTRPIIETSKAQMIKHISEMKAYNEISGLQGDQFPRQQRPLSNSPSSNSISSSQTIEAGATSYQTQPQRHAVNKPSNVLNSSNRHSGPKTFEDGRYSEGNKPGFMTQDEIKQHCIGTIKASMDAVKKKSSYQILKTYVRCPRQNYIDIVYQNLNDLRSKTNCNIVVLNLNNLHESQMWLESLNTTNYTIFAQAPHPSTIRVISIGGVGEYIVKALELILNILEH
# B1: human PrpF39, Flag-tagged (second copy HA-tagged in the co-IP) (natural protein, UniProt Q86UA1 1-669, looked up)
# chain: MQNSHMDEYRNSSNGSTGNSSEVVVEHPTDFSTEIMNVTEMEQSPDDSPNVNASTEETEMASAVDLPVTLTETEANFPPEYEKFWKTVENNPQDFTGWVYLLQYVEQENHLMAARKAFDRFFIHYPYCYGYWKKYADLEKRHDNIKPSDEVYRRGLQAIPLSVDLWIHYINFLKETLDPGDPETNNTIRGTFEHAVLAAGTDFRSDRLWEMYINWENEQGNLREVTAIYDRILGIPTQLYSHHFQRFKEHVQNNLPRDLLTGEQFIQLRRELASVNGHSGDDGPPGDDLPSGIEDITDPAKLITEIENMRHRIIEIHQEMFNYNEHEVSKRWTFEEGIKRPYFHVKPLEKAQLKNWKEYLEFEIENGTHERVVVLFERCVISCALYEEFWIKYAKYMENHSIEGVRHVFSRACTIHLPKKPMVHMLWAAFEEQQGNINEARNILKTFEECVLGLAMVRLRRVSLERRHGNLEEAEHLLQDAIKNAKSNNESSFYAVKLARHLFKIQKNLPKSRKVLLEAIERDKENTKLYLNLLEMEYSGDLKQNEENILNCFDKAVHGSLPIKMRITFSQRKVEFLEDFGSDVNKLLNAYDEHQTLLKEQDSLKRKAENGSEEPEEKKAHTEDTTSSSTQMIDGDLQANQAVYNYSAWYQYNYQNPWNYGQYYPPPPT
# notes: human PrpF39; In the co-IP two differently tagged copies (Flag-PrpF39 and HA-PrpF39) were co-transfected; The purified protein carries the Flag tag; also called Flag-PrpF39; HA-PrpF39; source: HEK293FT, transfected (pEF-Bos-Flag-PrpF39 and/or pEF-Bos-HA-PrpF39), in lysate; also purified (anti-Flag M2 agarose, 3x Flag peptide elution, Superose 6 gel filtration)
# B2: yeast SmD3 (natural protein, S. cerevisiae, UniProt P43321 1-101, looked up)
# chain: MTMNGIPVKLLNEAQGHIVSLELTTGATYRGKLVESEDSMNVQLRDVIATEPQGAVTHMDQIFVRGSQIKFIVVPDLLKNAPLFKKNSSRPMPPIRGPKRR
# notes: SmD3 of S. cerevisiae, member of the Sm ring of U1 snRNP; source: endogenous, S. cerevisiae; co-purified in U1 snRNP through the TAP tag on U1A
# B3: yeast Luc7 (natural protein, S. cerevisiae, UniProt Q07508 1-261, looked up)
# chain: MSTMSTPAAEQRKLVEQLMGRDFSFRHNRYSHQKRDLGLHDPKICKSYLVGECPYDLFQGTKQSLGKCPQMHLTKHKIQYEREVKQGKTFPEFEREYLAILSRFVNECNGQISVALQNLKHTAEERMKIQQVTEELDVLDVRIGLMGQEIDSLIRADEVSMGMLQSVKLQELISKRKEVAKRVRNITENVGQSAQQKLQVCEVCGAYLSRLDTDRRLADHFLGKIHLGYVKMREDYDRLMKNNRTTNASKTATTLPGRRFV
# notes: Luc7 of S. cerevisiae, 261 residues; first (pseudo) Zn-finger modelled; source: endogenous, S. cerevisiae; co-purified in U1 snRNP through the TAP tag on U1A
# Key:
# [1] = biological target: the molecule itself; assay: negative-stain EM; purified Flag-PrpF39; reference-free 2D class averages and preliminary 3D model compared with the Prp42/Prp39 heterodimer
# yeast U1C = biological target: T1, yeast U1C; assay: cryo-EM structure; natively purified yeast U1 snRNP, 3.6 Å overall resolution; settings: both partners purified
# yeast Prp42 = biological target: T2, yeast Prp42; assay: as above; settings: both partners purified
# yeast Prp40 = biological target: T3, yeast Prp40; assay: cross-linking; purified yeast U1 snRNP cross-linked with 100 uM BS3, 30 min, room temperature; trypsin digest, mass spectrometry; settings: both partners purified
# yeast Snu56 = biological target: T4, yeast Snu56; assay: cryo-EM structure; natively purified yeast U1 snRNP, 3.6 Å overall resolution; settings: both partners purified
Binder,stoichiometry N [1],binding result (yeast U1C),binding result (yeast Prp42),binding result (yeast Prp40),binding result (yeast Snu56)
B1,2,,,,
B2,,binds,binds,,
B3,,,binds,binds,binds
